A short description of the series: soluble fraction after stress (log2 fold change); higher = more stays soluble; pooled small domains, quantitative proteomics. Particulars: stress: 50 degC. The procedure, abridged: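 Pooled custom libraries of small protein domains were each held under stress at 50°C. The read-out, high-throughput quantitative proteomics, tracked how much of each protein stayed soluble. This is reported as a base-two log fold change used to indicate aggregation propensity. Higher values mean more protein remains in solution.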
For the sequence “HMDVLKMKVEDLNIGSRTVNSLTAAKIKTVAGLIKKSKESLLELDGMGNKGVEEIILALKKLGLEL”, the “soluble fraction (log2)” value was 0.0186.
As for “HMGNFQNIFRKLRTSSNLTQNAIAEKLGISRSTIGMYETGAREPDFETLEKIADYFNVDTDFLLGRTNQTT”, the figure is -0.106; as for “HMGIMNFDTWLKSLPGTPTPTIAAKKSGLAAPTLLRHVERGYSTADNVIAIAKAYGVSPIDALVDNGML”, -0.695; as for “HMEEQGLPLVIISDGKVLAQNLTLRSLDRAWLQDQLTQHGHSKPEQVFLLTVDERGAVYYVPKE”, -0.37.
On to “HMEMNDFETLRDMYLTGKIWNVGDIVEANGVRGKVIRKGTNYLSFVDEDNKVHKAWLYDIEE”, for which the “soluble fraction (log2)” value is -0.197.
The result for “HMGMIRFSKEEQMLMMLYSPGSRLGLIAELESMKLQLNSRERKLRNLAESVLKKLEQITDEEFMQFDF” reads -1.31; that for “HMADLTIDGVEYTKVSPTGTLTLEKVYTKNVTPADGQYYIQTGTKTVRVATDAEVAVIKAGGF”, 0.0157.
As for “HMSHFRMLPSITEADAFLKSRSLPAGLEVREQVDAFLAQARQTLALAQEAPWLSKQEVLETLADEFVQTS”, the figure is -0.496; as for “HMKNSAAKETILAFLKKNGGELFTQMQIIEKFQKMIPAPVLRITLEELLNKGQVEITSKGKYYLSVKGS”, -0.587.
For the sequence “HMREGNELLGKEGVTVSELRPAGIALIDGRRTDVVTDGEFVAVDQAVEVVEVSGNRVVVRRS”, the “soluble fraction (log2)” value was determined as 0.0948.
As for “HMTKPAEVRIDELMNAAQTLFLAKGVEATTISEIIASVGVAKGTFYHYFESKQHIVEALKKRYID”, the figure is -1.49.
As for “HMKRPEPESPEAERRSQRAADWLVRRDRGLTAAEQDEFLQWLAIDPRHGEWFALHRSVVGEFSA”, the figure is -0.192.
As for “HMDSKKNLLGKNGLAFTTLRPAGTVLIDGQRHDVISNGDMIPKGATVRVIAIEGASITVEALPD”, the figure is 0.155.
With “HMRPADTAAMLKYLSSGAVKGIGGALAGRIIEAFGDESIKVIEEDPARLATVKGITLKKAKEISEEMQRVN”, the “soluble fraction (log2)” value came out at 0.0712.
As for “HMKGHQASTTWISERVKDIIKEDPTLGARKLQKRLEIHYNIELSYFKVWSGKNLQWMIFMVL”, the figure is 0.022.
For “HMIENPGQTFERIAGKITRTLRTGPLRIQQLDLLFSESGEQVMDVLRAMAENGEILIKDDTIQWNGHN”, the “soluble fraction (log2)” value is -0.0388.
As for “HMSVKIELNENEQAIFTAVQKVNEAVLPELRAQFSDMSNKAWDNSVKMLTKNNLLKVSKEGEILYIRM”, the figure is -0.567.
As to “HMSIDNALLTLIGKTGTAQTVLRPSGKVVIGDEVYDAVTAGEFIDKGSAIVVTRVEATQLYVEASEA”, the “soluble fraction (log2)” value came to 0.0555.
As for “HMNIGELINKKRTELGLTLEEVGNAVGVSKSTVKKWEDGFISNMRRDKISKLAKVLEMNPVSLITGE”, the figure is 0.0389; as for “HMKKDRKKMLKEGIVLFEKILRGMELSPTSEPLKKVLTSFNIQNKEDLYVKLGAGVISSEEVIKELKKK”, 0.183.
Take “HMVKDYIQVTVNKEPVILKGKKDYIFIDIFNYIEFDLTIPKGSLYLLLNGKNAGYHDKLLDGDVIELGW”: the “soluble fraction (log2)” value was -1.72.
For “HMTPVIINESGGDQDTRIEGLNDNNLLYVDASTDRVGVGVATPTQKLDVNGDVAISGGSLYLSQ”, the “soluble fraction (log2)” value was -0.00396.
As for “HMNKEQIASNIAEARKRSGLNQSELARRLGIRPQSVQQWEKGTATPKLDRLTAIAQVLGVSLESLTG”, the figure is -0.0259; as for “HMGDKVTIPNLIDMKLTDAQNQYKPQGFSIVKNGERESDKEAGTILEQDKAAGTEISGKDIRIFVVVSSGS”, -0.00368; as for “HMDSERTALLSSDRTSFTAREAALLIGVSQRDIYRMIEDELLDSFTVGKMIRIRRSALEWWLS”, -2.92.
As for “HMQRVSDKVAAQLRVLVQEQQLKPGDRLPAERALAVQLGVSRTALREAIAQLASQGLLTARVGGGTYVAEP”, the figure is -0.307; as for “HMNPAIYIRKNILNLTQEKLSEYLDVTQPTIHRWEESGVIPAKHQRQIREFASEKGIYWNDSWFFSIPDE”, -0.953; as for “HMSNEIIFNQKSITRFLMNPENNSPMIYPLELGHEMKVIKKNNDWLNVTDEKTGLNGWVISDDFGLTKPEG”, -0.212.
As for “HMDSQKKNETLSSTADEIIKNYAGKRDLSEESMEQLEQFQKDMRGADVNIFTAAQIRMLDQIFQENLH”, the figure is -0.0243.
On to “HMTVVPNIVNQPEAAGTNLLISSNLKPGNRAVQYSDTVKAGDIISQSPEPGAQATLGGKVDYVISQGPAPT”, for which the “soluble fraction (log2)” value is 0.165.
With “HMEGRHFRILYILLNNERVTAPELAEEFGVSVRTIYRDIDTMSAAGIPIYMQGGRKGGIYLLEGY”, the “soluble fraction (log2)” value is -1.16.
“HMDESIPVITYKDSVYANPKAFADAHKLPYKSLHNALSKARKEGKVRFMYKQYNFHLDNNGYIVAVS”: the “soluble fraction (log2)” value was determined as 0.166.
Consider “HMVQQAVNMAKPGKLFTGPSPTSKALRDLDAGAMLYPTGEKQGPFWKVQDELGNEGWVAMGLLQLA”, for which the “soluble fraction (log2)” value was found to be 0.175.
As to “HMDENVVLRKVAREAFVIEYVRGIRAIDPGIGGPKLWLMYKREFGDNDTVGRDTFEDILDRNNLKVRI”, the “soluble fraction (log2)” value was -3.26.
As for “HMNDRRQDVFELLKSSERPVSAADLAHKFGVTRQVIVADIALLRASDIDIVSTNRGYILKANL”, the figure is -1.49; as for “HMVVPELNLAQQDVLRALRQRGRATADHLSVDTHRPVSEVMGILLGLEIAEVLYRVEGGWFVPKTAR”, -0.653.
For the sequence “HMGADPTTWPEIDAFVGRVAVTATGLFPSGQVEIDGRRFEARLAFGVAEPGARVVVRRRTDFGLLVEKETR”, the “soluble fraction (log2)” value was -0.389.
For “HMKEKDAYTSEILDTLKNAKLLVVEGTVYPLLTRLKNDGLLNYRWEESTSGPPRKYYGLTDEG”, the “soluble fraction (log2)” value was -0.445.
As for “HMGETDDDFRELEEFVEKTKFDKLGTFMYSKEEGTPAARLPEQIHGNTKKSRYNKIMSIQQKVSNEN”, the figure is -0.0112.
The result for “HMATGIKAVDNVFGWMNLEQVAKTVGLDIPSVLRASGLPEDTPVDISIKKIPGVDDEELKDSLRQYIEKS” reads 0.0213.
Turning to “HMTGETWAERSRALAAAGLIVMGQEAKNKIEDLPSLSPLIEAAAASETRLLTGQIIDELLAFV”, the “soluble fraction (log2)” value is -0.288.
For “HMEIYELTDQEQRVLEFIGEGMTNREIAKNMFLAEKTVKNYVSSLLRKLGLERRTQAAAMAVRLSV”, the “soluble fraction (log2)” value is -0.0994.
For “HMINLDYILELIFEKNNKTKDKTALIEEIRGVIRASVGNRAKESLIVDFINDTDLDTITDKASIIESFFEY”, the “soluble fraction (log2)” value was -3.51.
Turning to “HMDNQYGVYSDEKNNVEIHWKRIDHPSVAKDHLDIEAYQNGKRVDINNQQADHYRYLINQEMNE”, the “soluble fraction (log2)” value came to 0.0952.
The result for “HMEEVRFPLKKEILLWALKEAQVDEDEVFRKFTNLEKWINGEKHPTFKQIESLANYLKIPFGYMFLEKPPI” reads 0.0399; that for “HMEDIAAIAQRIQGLRDIVGISVEEMAKALDISEQEYREYEKGETDFSFSFLYTVANVLGINITDLI”, -0.709.
As for “HMRFSYLNIETRKDISSLINKSEITHSSYNNNEYLYKIKSKKTDDFKDLISLIDEKDLISYSIDS”, the figure is -0.838; as for “HMTNYYTVTFKEGDTVLKEVSVHSGDGVPYAVAPKRDDIVGWSYNGNTYTTDLNTLKIKKEVTFTAVT”, -0.222.
The result for “HMDHKSALQELLAPRGLQPSYRLVEEAGPAHARVFTSEVSVDGVARGSGTGTTIKMSEQAAAREALASLG” reads 0.223; that for “HMERTVEVVDINDVFSQFLRLYSRERAAGLLSVFKRVEHGLSWQGNPVLLERILSNVFENAIKYAA”, -0.0515.
Regarding “HMLQVSDENFVVELVQKVLLDNPSSVQEYKNGKESVLQFLIGQAMKASKGTANPQIVKEIMLKLL”, the “soluble fraction (log2)” value is -0.314.
“HMTYSAFITARNKRIAEEYSVLLDSLNISNNVIYRLGSWVVEVNVSDHSRAIDEIYSYERSGRIDKV”: the “soluble fraction (log2)” value is -0.498.
Take “HMLISKNLLGFTIKNTSGVTFGTLKDIMWLPSNDVYVIDNNGKEYLIPVISEIVKSINYDKGSITIFP”: the “soluble fraction (log2)” value was -0.352.
On to “HMPIMDSDDKYEALGIPQEWIAVVKKAGYQTVEALKAVENPNKLHQELSVMNKKEKLGLAGLTPEMVKAWL”, for which the “soluble fraction (log2)” value came to 0.342.
As for “HMHPKDVPTRRELEVLQAVSEGLSTAEIGLRLDITENTVETFRRRLIQKFDAKNAIDLVVKAMAQGWIKV”, the figure is -1.16; as for “HMDEYTREQFVADMEEGRVREVTIHPNSEVPTGYIRVELANGADMKLYVTDIVEAEELVRSYGFDPPVRDV”, 0.128; as for “HMEGNWGLWAKVPNRFAALTTDKDSALRRFKSKEDGEAWMASHGLKPERFDVLEIPADYKPA”, 0.0433.
As for “HMQNNTIAFSKFLQEVDNGRVVQVEIQGNNINGILSDGSKFNTYSPNYPALVEKLSEKNVNIVASPV”, the figure is 0.0149; as for “HMGQVSDENQLNKVIDEVIKNYPIQVEQFKAGKEPILQFLKGMVMKATEGSADPAVAEKLLRKKL”, 0.237; as for “HMKSNIGENIRQLREKREMSVERVARMLEVKPATVIGWESGRELPEPAELGLLAKLFDVTVEELN”, 0.106.
For the sequence “HMRTVPEALLGRAYETAETAIVLEGLEAKRTDVFHPTIGNGTVIRLEPASGSQVSAGGVIEIFVSKGTETI”, the “soluble fraction (log2)” value is -0.305.
Regarding “HMSYTDIILKMSNVNFLTKVNFTNSEKNKNIKNGNFLIKKGKNRITAAFDYKDNELVISKSNLRNTFL”, the “soluble fraction (log2)” value is -0.381.
“HMREYVGLSPFNKEKTPSFYVNDEKGQFFDFSSGKNGDLITFLQETERLTFMEAVERLAAEAGLPMPA”: the “soluble fraction (log2)” value was -0.491.
On to “HMGRKRLADYGLNDTEQKIVRKIADGLSNREIAQALYLSEGTVKNYITDILGKLELRDRTQIAIFYLREIG”, for which the “soluble fraction (log2)” value is -0.0293.
For the sequence “HMRSAKLPYSEFLKLVDTDKVNDVSIVGRTISGHLDDGSKFSTYTPPNDPNIIEKLSSHNVIINSAPE”, the “soluble fraction (log2)” value was -0.0117.
“HMTHRRLELTLDAIDERLDRALTAAVPELSRMQWQRLIREGLVTVDGERARPSYRIQGGETLVALVPEV”: the “soluble fraction (log2)” value was -0.234.
On to “HMNQDMINFDKLSVRLKNVLIENNLKTVDSLLNYPAEEFEYLTNLGEKTLQELLTYRNELAASNNIQ”, for which the “soluble fraction (log2)” value is -0.289.
The result for “HMGAEWTEMRVWTSTSGSKVTAEASSLTNGQVTLETKSGKRITLSIRKLVEADQKFLEAHFSK” reads -0.947.
Take “HMEFDFGAILSGNGGSELYSGYSAEQKAALVEAAKADGMDVEFGADGSTTFKDKDGSEVVQKADGTWTV”: the “soluble fraction (log2)” value was determined as 0.18.
